From US12331073B2, “Preparation of biologically active complexes” (priority 2017, dated 2025)

Experiments:
tumour cells = assay: Inherent tumoricidal effect of oleate salts
[1] = test system: Human lung carcinoma cells (A549, ATCC); assay: Cell death assay (ATPlite, PrestoBlue, trypan blue exclusion); type: cell-based
Procedure: Human lung carcinoma cells (A549, ATCC) were cultured in RPMI-1640 with non-essential amino acids (1:100), 1 mM sodium pyruvate, 50 μg/ml Gentamicin and 5-10% fetal calf serum (FCS) at 37° C., 5% CO2. For cell death experiment, cells were grown on 96-well plate (2×10^4/well, Tecan Group Ltd) overnight. Cells were incubated with biologically active complexes obtained in Example 1 at dosages equivalent to either 7, 21 or 35 μM peptide in serum-free RPMI-1640 at 37° C. FCS was added after 1 hour. Cell death was quantified 3 hours after peptide-oleate treatment by three biochemical methods including 1) estimation of cellular ATP levels using luminescence based ATPlite™ kit (Perkin Elmer) 2) Presto Blue fluorescence staining (Invitrogen, A13262) and 3) trypan blue exclusion assay. Fluorescence and luminescence were measured using a microplate reader (Infinite F200, Tecan).

cells = details: Vukojevic et al. Langmuir 2010; cited from earlier work
bladder cancer [2] = details: murine bladder cancer model; cited from earlier work
glioblastoma xenograft = details: rat glioblastoma xenograft model; cited from earlier work
skin papillomas = details: topical administration, placebo controlled clinical study; cited from earlier work
bladder cancer [3] = details: local instillations; cited from earlier work
tumor cells = details: early in vitro experiments; cited from earlier work

Molecule: CCCCCCCC/C=C\CCCCCCCC(=O)[O-].[Na+] [sodium oleate]
- inherent tumoricidal effect (tumour cells): appear to have some inherent tumoricidal effect

B1: BAMLET: bovine alpha-lactalbumin (700 μM) and sodium oleate (3.5 mM) dissolved in Phosphate Buffered Saline by vortexing (protein, UniProt P00711 20-142, looked up)
Alpha-lactalbumin: EQLTKCEVFRELKDLKGYGGVSLPEWVCTTFHTSGYDTQAIVQNNDSTEYGLFQINNKIWCKDDQNPHSSNICNISCDKFLDDDLTDDIMCVKKILDKVGINYWLAHKALCSEKLDQWLCEKL
modifications: complex with sodium oleate
notes: bovine alpha-lactalbumin (700 μM) and sodium oleate (3.5 mM) dissolved in Phosphate Buffered Saline by vortexing
- activity after lyophilisation of the complex ([1]; after lyophilisation): removed the activity
- tumour cell death activity of freshly prepared solution ([1]; solution in PBS vortexed at room temperature, FIG. 4): biologically active and killed A549 lung carcinoma cells in a dose dependent manner

B2: complexes using equine lysozyme and oleic acid: complexes using equine lysozyme and oleic acid (Vukojevic et al.) (protein, UniProt P11376 1-129, looked up)
Lysozyme C, milk isozyme: KVFSKCELAHKLKAQEMDGFGGYSLANWVCMAEYESNFNTRAFNGKNANGSSDYGLFQLNNKWWCKDNKRSSSNACNIMCSKLLDENIDDDISCAKRVVRDPKGMSAWKAWVKHCKDKDLSEYLASCNL
modifications: complex with oleic acid
- cell death (cells): found to produce cell death

B3: HAMLET (protein, UniProt P00709 20-142, looked up)
Alpha-lactalbumin: KQFTKCELSQLLKDIDGYGGIALPELICTMFHTSGYDTQAIVENNESTEYGLFQISNKLWCKSSQVPQSRNICDISCDKFLDDDITDDIMCAKKILDIKGIDYWLAHKALCTEKLEQWLCEKL
modifications: complex with oleic acid
- therapeutic efficacy in bladder cancer (bladder cancer [2]): Therapeutic efficacy
- cell death in healthy brain tissue (glioblastoma xenograft): without evidence of cell death in healthy brain tissue
- tumor progression and survival (glioblastoma xenograft): delayed tumor progression and led to increased survival
- effect on skin papillomas (skin papillomas): removed or reduced the size of skin papillomas
- tumor cell death in bladder cancer patients (bladder cancer [3]): caused rapid death of tumor cells but not of healthy tissue surrounding the tumor
- anti-tumor activity in vitro (tumor cells): broad anti-tumor activity with a high degree of tumor selectivity
